Assay results: the domain aggregation screens of Martell et al. (2025)

Assay: soluble fraction after stress (log2 fold change); higher = more stays soluble; pooled small domains, quantitative proteomics
Details: stress: 75 degC
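Note: 20 min heating vs room temperature control held 20 min.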

Sequence | soluble fraction (log2)
HMFIVTDQMQRVLDYITEKEKATNNDLEELLGVKSTRIYTITRKLIQHNLIIPVGKGKNKYYIL | -0.902
HMFKDVTVPSVINKTEAEATNMLKGLNLVVSVEYEENANKSDGIVTAQNVNANKVIKEGETVTITVNKQP | 0.113
HMFKNWMPFDEARIFVRKLKFNSHDEFRKYLKANEINIPSKPWSTYKGKGWVSIGDFLGTHR | -3.26
HMFLPGETFDVKIVKIGEGENQGVGYLDDGTMIVIENGRDHLNELARVIVTRVLQNSAGQMIFSDYEE | -2.21
HMFLTPLEETRLAIEEVVIAKNIAIDLFPRESAIRKQQHELIYHYHLKGLTVGTEKNKRLRIFPRGY | 0.0279
HMFLTSDEGKIMQLLEDKQRITRKDAQELLGVSQSTAGRILKTLVDNGQITQRGGGRTTRYELIK | 0.104
HMFMKNTEVALAIKGKFSNQTTITSKELVLFLSDLFPELSNKTIPWKINQLKAENLIYQTGRGIYTFN | -2.53
HMFMMVAGHLQIKNEKYYMVLELRTEQGERKTKWIGTGLAVKGNKRRAEAMLEETRTKYLSPV | -2.18
HMFMPGTIIKQFRELRNYSQDYVSRKMGISQNAYSKIENNITQLTVTHVKQLSSILDVPIVELLR | -3.71
HMFMSDDDIRILVKEWLQSQNRKSYQLAEEIGIRPQTFYAQMSVRKISANTKKALSRIIPGL | -0.769
HMFMSKTAMVAIISEADKYGLFNIPEGLSVEKTADEIFEGHIEVDFDKLKNELDFVYKNEALEKQFQEN | -0.852
HMFNPEQDPKQLTGRERAVADLIGLGANNAEIAIRLSMSERTVKAHLTSIFQQLNVRDRVQLALVMNQL | -0.493
HMFPASQPVPTDLNQIVRAGLEVFSGRLEGIDVRVSLEPELPRVNVDPEHFKRIVVNLVDNAAEAMQNS | 0.183
HMFPATAPQLKAVHAILGKQGISDELDKLARVNEWLVGLNKEPVAAISELDKHTTSGLIDHLQGELNE | 0.297
HMFPDLSPEQQRIVDVLTKSNDLQLNQLSVKTGIPIGDITSILFQMEMMGVVKPMAGGNYHLL | -1.68
HMFPDLTEDEQLIVDVLQRTGDLQINSLIVEANIPVNKMSEILFELEMKGVIRTLAGGVYQLL | -2.05
HMFPDRLRELRKGRNITLETLAEEMNKHLEPGQKPNTAAQIGNWERGDRSPSYIEVRKLADFFNVSMDFL | -0.586
HMFPELNAEETQVVQLLQKQTEGMQVNSLVVESNIPITRMSGILFELELKGIIRNYAGGVYKL | -3.2
HMFPELSEEAKVIVDALSKENDQQLNVLIANTGMAVGTMQAKLFELEMQGVVKPLAGSVYHLM | 0.111
HMFPELTDDEQLIVSTLAKTNDMQINMLAVRTGIPVQRMSALLFSLEMKGVVKMYAGGTYHLL | -2.93
HMFPNQLLISRLSNQLSASERFAAVSSIAQLKNIDYDVLHVLVHTMNSDPNSNVRLAALEALSR | -0.459
HMFPQQGEIRQGVIASITPDQILVNVGTKSEGIISGKELEAISKSERDSLNVDQKIAVYILDPEDSNG | 0.395
HMFQNPSQVVTTRVGELRAAIPTAQQGRITMGVAVVEDANSVRSVLISTSEPRGYLRPGVTLGPGETMV | 0.0661
HMFQPFFENLRKASIPVSLREYLTFLEGMKKGLVTYDIEAFYFLARAAMVKDERNIDKFDRAFSATFKG | -0.306
HMFQTAADVAYRIISQKILDGEFPPGMKLSRRKMAEVTSVSVIPVIEALKKLEEDGLVESKPQWGSFVTI | -1.69
HMFQYEKIKDYILTGLEEGTWQAGDKIPSEAELVMSLNVSRMTVNRAVRELANSGLLVRIPGAGTFVATE | -0.643

Sequence | soluble fraction (log2)
HMFSIDRNIRRLRKEAGLTQEELAQKLFVTRQTISLWELGKVHPDLETLQKLAEQFQVDLLQVLYGPE | -2.33
HMFSLDMDRLVRPGFMASGNVTFSDGVTGKWALDQMGRLALETAQKGYQPSPADVQAFQRELQQQLQRQG | 0.0415
HMFSPTKLKEKRESQGLSQSQLASSLGISRASYFNWESGKTKPNQNNLSKLSEILNVDPRYF | 0.489
HMFSSVSVPAELSNQRFDKVVAELTPDLSRSKIKQLILLGKVLLNGEVTPPKQKVETGDEIEIFYTRQIE | -0.797
HMFTLDIGTIIRNRRLELNLTLEEIGNAVGVSKSTVQKWENGFISNMKRDKISALAKVLNINPVTLITGEY | -3.44
HMFTLNEIIGQKIRNARISAGLTLDELSKMTGISAAQLSSLETGYRRANIDTLYAIAKAIGIDVSNLLKY | -1.39
HMFTRFTVAQDGWTIGGFTAKEMAVSTAKQHAVDTGKPVTVVAHVAGGGSREAIFNSDGTNDKIWN | 0.065
HMFTYEETIGKSADVYLTIPALKAGKGKIIISVRGSVHELDAMTNNAEKISTGAVVKIVRIEHGNILLVEN | -1.69
HMFVEKDSIINKGNNSYNFVITDNNNKVLVEYNGLLPDLFKEEQGVVIEGRLKSDFIIHAFTVF | -0.0707
HMFVGVDMAVKEEIGKEGVAFTDLRPAGKVSIGDDVYDAVSETGAFITRGTSVRVLKYQAGQVYVVK | -1.3
HMFVTFFHELKSAGVPVSLREYLTLMEAMDRDLASRRVEEFYYLARTALVKDERNLDKFDRVFGHVFKGL | -4.08
HMFWVESDVDFVDKTSAHNAIKENERVIGMYISYRLNGTWTTEQYVGIDTSKDNWENPDNWNIL | -1.42
HMFYLPEPLTEQELRILGMLLDGRSNPEIAAELFIAVGTAKWHVHNILQKLGVANRAQAIVKAHELGLT | -2.08
HMFYNELMNFIVYKDSQKIGKIVNINDKLPQPVFEVLINDKKFMVPIHDDFIEKIDKEKKSIHIVIPDGLL | -0.684
HMFYWTDLIGLDVINTADERLGKVVGLIETGANAVLRVMGDDQVERLLPFGSAVVLTVEKEAGQIRVEW | -2.11
HMGAARVTPLYNLRLREGPSTATARLDVVPRGTTLEVRAWDETGDWAQVEYRGQIGWIAAWLAEVEGEAP | -0.69
HMGADSFTGYTPIHKIDNPSDGINDGASYVVYFQKDGTDPTEFYKAVNANASTLAQLTSGTEYDLASSKKL | 0.56
HMGAEIRDKVRAALAGLNPRAAEIFVMRYFDGYGNREIARLLNTSWSTIAVTLHRTRAKLQKELK | -0.0467
HMGAGDKQAQQASLMQIIALQKEGMALGLVEPKHLYHSFSKMIENAGFKDVQSFAVDPSTQQ | -0.0432
HMGAGEQMLPKVMFAEGDRVVHKVFGEGTVVTVDRPAQTYDIQFDKLRGTRRIMFRAELEGI | -0.693
HMGAGLDDLVRKSLHNAGLKADDNVVSWISGNLGSDRMVSRMELEKLVLFVAGQSEITLEDAQAVIGD | -0.524
HMGAGLKIGNDHEYANYLEYKVSVEKYAPGAILGEIKQKGIQFNTTISKTTFYRYITDGVFLTITNADLPV | 0.374
HMGALTGQERRAEIMNILRQSTMPLSGAALGKQLGVSRQVVVQDIALLRQSGEEIYATNRGYVTG | -0.417
HMGAQPLIEPLSERELEVLALIAEGLTNAEIGRRLFIATGTVKRHVNTIYGKLDVHGRIEAIARARDLHLI | -1.25
HMGAQRDFELQLIDVIRQNPGLTYKAYGEKLSVSQATVKRLVAKLKETGSIRREGSQRKGTWIITDD | -1.49
HMGARWPIQDRPLTATEAAAVRRMYAGGLPHGRSKNSVITEVWGDLSNKPKRLDWLNQALEGGA | 0.0155

Sequence | soluble fraction (log2)
HMGASGVEVPDVAGMSTAQAVSSLEQKGFVVNRTESYDAGVEKGNVISQSPEGGTKAPNGSAVTIRISQGA | 0.831
HMGASIQITVNNTPVMLKNKTHYTLVDVLDFYPFDLSKMGGTELYTAINGVKSGFTDPVHANDSIEIYWI | -2.49
HMGASSLVGRSARVLQAVTDSDGRIKLAGETWSARLAAGATSTVGPGEEVRVIAIHGATAIVAPV | -0.581
HMGASVGEVESVKTASEIYTAAAGKIVAVNDAVAKDPSLVNSDPYGNGWLVKLEIADLSAINA | 0.0161
HMGAVDIATARQLISEIGLPIMLKAEGGGGGRGIFAIHNEAELEDAFFKASTMAQASFGNPRLFVEKF | -0.441
HMGAVFEFIMEEEEPERIDKLLSSALPDLSRSYLQKLVKEGAVLVNKKEVKPNHKVNPGDVVEISVPEPE | 0.448
HMGAVGISQKVTSLETAVLGKNFAKDPLIDRVARLEQTVLPKQAEANASLSLPERVSKLLEKVPIAAG | 0.109
HMGAVPKNYFPAVEKGLQDSVQKGLLAGYPVVGVKAILYDGSYHPVDSSEMAFKTATIQAFKKGFMEA | 0.187
HMGAYIPSYAPVDINAATHTVVRGDTVYNISKRYHVSQEDFRAWNGMADNTLSIGQVVKVKPAGYTAPK | -0.267
HMGDAVSRAYFALADDLLKGELTETVSEVLIRTRYELTSAQLQAVLHRIAQEGWAHKKPGYGWEFSAMLT | -2.01
HMGDEHYDTISAFIKSVRGSDPDAALYWLAKMILAGEDPRFILRRLIVLSGEDIGLADPQGI | -0.552
HMGDEPGAGYKWREDVLLRVMSEHGIDESARDDFVRHAVKFDDDDNLYLKKAEIIAAAEAWESSS | 0.359
HMGDFLLQVDFPPALLEMLPEGKRQAAIGVLSHDPRPAYQRTPGRVYGLNFAGHNIRFAVSENLLTVLEV | -2.16
HMGDFLLTPHRGRSADFVIGNPPYIRLEDVPNDISDAYRAEYASMPGRADIHVGFYEKGLDL | -0.117
HMGDFVIVPDLIGKTIEEFDSELNELNLKYIISDSGNYNPDFKINSVLDQLPNANSKVKGGRKIYITLNAS | -1.05
HMGDGAWQQGEGGRWWYKYNNGTYPKDRVVTIGGKKYGFDSEGWMLSDTTKAFGGTTYSFAADGVATAQA | -0.0039
HMGDGYTYYYDDTVLALGFTKIGNDYYIFNTFSGKMYKDATMWVNDNPYGIKGGMHYFDASGKMFV | 0.215
HMGDIFTAEDAKERIDYSGVDGIMLARGIFGNPWLIRDIREYLEYGKILHPVTQLDRVNMAIEHTRKT | 0.169
HMGDIMLLFKENGKVYFLVGNQYTYVKNPTELSAIKTMMKQAGYDTHEHTNTTQVAYIKRLATE | -2.35
HMGDKVLIQTAQRLKKDLPFASIVSRFGGDEFLIFLPGISSTERVETIVKKTVFLFIAISTTLF | -0.28
HMGDLKSLIQATMDDAGISIKPDAMDYLISHLGSDRLTTRAELDKLILYAGADDKLDLDSVVELVG | 0.00366
HMGDLLTVDRVAATSGLGVDTIRYYQRLGLLDPPVRHGRRALYSTAHLDRLVEIRQLADEGFSLAQIATL | -1.05
HMGDLVFDFVHGVHKAAEVEKELVMQALRFTHGNVSRAARLIGMQRSSLRYRIERYRLDAFVMEVAN | 0.276
HMGDPSSERNIQKSIFILIGEKALSVQDISRSLGMPNDIIDKALISGVERNLWLSSDKGEYYL | -1.2
HMGDRRSVFEQSVLDAIKSLVKQGELATTKAISDHIGTNYQGNVSRAITALLADNKIKKLPKEGVLQPYEA | -0.0172
